Blank lines part the entries; values can stand above or below the binder they belong to. Bridge positions count the residues as written; N and C are the ends. Ends that are not written are not given here.
Key:
[1] = biological target: T1, natriuretic peptide receptor-B (human); assay: cell-based or functional assay
T1 chain: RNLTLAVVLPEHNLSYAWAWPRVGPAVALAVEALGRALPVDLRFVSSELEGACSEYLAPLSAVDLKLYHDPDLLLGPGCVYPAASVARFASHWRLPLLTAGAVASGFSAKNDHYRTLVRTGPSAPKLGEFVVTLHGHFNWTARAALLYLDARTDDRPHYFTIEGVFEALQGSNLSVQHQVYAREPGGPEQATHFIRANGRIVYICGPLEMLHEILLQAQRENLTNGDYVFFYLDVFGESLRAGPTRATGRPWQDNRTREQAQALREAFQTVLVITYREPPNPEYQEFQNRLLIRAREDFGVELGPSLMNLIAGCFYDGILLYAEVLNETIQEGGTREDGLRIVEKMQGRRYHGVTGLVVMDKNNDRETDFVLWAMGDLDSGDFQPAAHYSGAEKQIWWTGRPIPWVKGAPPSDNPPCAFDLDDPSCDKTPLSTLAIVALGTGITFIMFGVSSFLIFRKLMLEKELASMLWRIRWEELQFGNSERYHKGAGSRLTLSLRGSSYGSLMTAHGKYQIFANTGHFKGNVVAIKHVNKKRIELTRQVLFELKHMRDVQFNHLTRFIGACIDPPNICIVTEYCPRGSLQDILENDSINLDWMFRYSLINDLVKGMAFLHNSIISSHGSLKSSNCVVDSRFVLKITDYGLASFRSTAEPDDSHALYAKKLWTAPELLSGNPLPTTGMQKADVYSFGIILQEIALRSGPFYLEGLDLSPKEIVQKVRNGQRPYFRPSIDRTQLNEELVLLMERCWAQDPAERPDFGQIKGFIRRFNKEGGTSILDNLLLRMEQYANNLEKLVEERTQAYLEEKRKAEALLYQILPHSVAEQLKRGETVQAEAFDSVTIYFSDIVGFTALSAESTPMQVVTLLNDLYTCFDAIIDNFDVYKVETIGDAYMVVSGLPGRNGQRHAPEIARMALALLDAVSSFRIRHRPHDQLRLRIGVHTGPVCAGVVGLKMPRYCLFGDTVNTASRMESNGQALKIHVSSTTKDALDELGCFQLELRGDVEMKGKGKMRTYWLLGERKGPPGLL

[2] = biological target: T2, natriuretic peptide receptor-A (Homo sapiens); assay: cell-based or functional assay
T2 chain: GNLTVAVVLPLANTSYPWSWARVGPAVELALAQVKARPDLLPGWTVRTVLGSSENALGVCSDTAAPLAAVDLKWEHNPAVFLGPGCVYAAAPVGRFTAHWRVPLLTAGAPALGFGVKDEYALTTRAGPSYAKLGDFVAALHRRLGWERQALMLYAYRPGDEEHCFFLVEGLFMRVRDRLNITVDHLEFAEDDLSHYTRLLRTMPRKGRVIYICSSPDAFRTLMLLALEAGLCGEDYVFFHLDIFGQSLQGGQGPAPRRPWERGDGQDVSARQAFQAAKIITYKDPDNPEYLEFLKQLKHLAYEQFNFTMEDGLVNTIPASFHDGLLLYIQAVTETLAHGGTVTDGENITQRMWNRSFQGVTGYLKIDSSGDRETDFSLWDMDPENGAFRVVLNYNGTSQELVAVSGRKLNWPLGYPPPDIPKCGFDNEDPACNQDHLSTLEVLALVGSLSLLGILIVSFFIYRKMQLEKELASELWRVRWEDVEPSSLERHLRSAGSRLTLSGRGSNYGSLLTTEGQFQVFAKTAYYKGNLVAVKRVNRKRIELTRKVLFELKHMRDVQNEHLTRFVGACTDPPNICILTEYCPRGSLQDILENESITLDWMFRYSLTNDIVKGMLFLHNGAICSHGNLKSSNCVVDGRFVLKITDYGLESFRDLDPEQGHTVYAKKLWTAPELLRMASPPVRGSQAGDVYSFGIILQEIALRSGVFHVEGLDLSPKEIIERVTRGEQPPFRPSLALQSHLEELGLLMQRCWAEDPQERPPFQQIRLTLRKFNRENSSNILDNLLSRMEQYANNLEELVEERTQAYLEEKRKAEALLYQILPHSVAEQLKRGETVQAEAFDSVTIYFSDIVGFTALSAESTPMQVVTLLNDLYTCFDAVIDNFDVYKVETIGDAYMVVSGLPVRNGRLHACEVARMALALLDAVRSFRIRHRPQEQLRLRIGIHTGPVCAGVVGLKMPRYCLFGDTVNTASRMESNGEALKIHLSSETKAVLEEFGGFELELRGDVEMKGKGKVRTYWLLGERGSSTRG

EC50, cyclic GMP production in GTM-3 cells [1]: > 45000 nM
Emax, cyclic GMP production in GTM-3 cells [1]: 0%
EC50, cyclic GMP production in NPR-A transfected 293-T cells [2]: 1540 nM
B1: mini-ANP (peptide)
peptide: MCHFGGRMDRISCYR

EC50, cyclic GMP production in GTM-3 cells [1]: 38.8 nM
Emax, cyclic GMP production in GTM-3 cells [1]: 100%
EC50, cyclic GMP production in NPR-A transfected 293-T cells [2]: 1600 nM
B2: C-type natriuretic peptide (ligand)
peptide: GLSKGCFGLKLDRIGSMSGLGC
modifications: disulfide 6-22 (inferred)

Source: patent US9187525B2, “Methods of treating ophthalmic diseases using NPR-B agonists” (Shire Orphan Therapies GmbH, dated 2015)
